# According to patent US10941182 (Amgen, dated 2021):
# Starred links: 1 amine or outer side, 2 acyl side, 3 side chain; linkers in the order of their positions; H or OH if unused. Non-standard residues stand in square brackets, D forms with d. Primed or numbered codes have the meaning given here. *: point of attachment. dBip = N[C@H](Cc1ccc(-c2ccccc2)cc1)C(=O)O; Oic = O=C(O)[C@@H]1C[C@@H]2CCCC[C@@H]2N1; Phe(4-Cl) = N[C@@H](Cc1ccc(Cl)cc1)C(=O)O; Phe(4-I) = N[C@@H](Cc1ccc(I)cc1)C(=O)O; γGlu = O=C(O)[C@H](CCC(=O)[*:2])N[*:1]; Tridecanoyl = CCCCCCCCCCCCC(=O)*; hArg = N=C(N)NCCCC[C@H](N)C(=O)O; Cha = N[C@@H](CC1CCCCC1)C(=O)O; NMeL = CN[C@@H](CC(C)C)C(=O)O; Nle = CCCC[C@H](N)C(=O)O; Pip′ = not defined here; AEEA = NCCOCCOCC(=O)O
# B1: Apelin polypeptide SEQ ID NO: 335 (peptide)
# peptide: Tridecanoyl-[γGlu][AEEA][AEEA]RQRP[Nle][Cha]SHKG[Oic][Nle]P[Phe(4-Cl)]-OH
# SMILES: CCCCCCCCCCCCC(=O)N[C@@H](CCC(=O)NCCOCCOCC(=O)NCCOCCOCC(=O)N[C@@H](CCCNC(=N)N)C(=O)N[C@@H](CCC(N)=O)C(=O)N[C@@H](CCCNC(=N)N)C(=O)N1CCC[C@H]1C(=O)N[C@@H](CCCC)C(=O)N[C@@H](CC1CCCCC1)C(=O)N[C@@H](CO)C(=O)N[C@@H](Cc1c[nH]cn1)C(=O)N[C@@H](CCCCN)C(=O)NCC(=O)N1[C@H](C(=O)N[C@@H](CCCC)C(=O)N2CCC[C@H]2C(=O)N[C@@H](Cc2ccc(Cl)cc2)C(=O)O)C[C@@H]2CCCC[C@@H]21)C(=O)O
# B2: Apelin polypeptide SEQ ID NO: 345 (peptide)
# peptide: Tridecanoyl-[γGlu][AEEA][AEEA]RQRP[Nle][Cha]AAKG[Oic][Nle]P[Phe(4-Cl)]-OH
# SMILES: CCCCCCCCCCCCC(=O)N[C@@H](CCC(=O)NCCOCCOCC(=O)NCCOCCOCC(=O)N[C@@H](CCCNC(=N)N)C(=O)N[C@@H](CCC(N)=O)C(=O)N[C@@H](CCCNC(=N)N)C(=O)N1CCC[C@H]1C(=O)N[C@@H](CCCC)C(=O)N[C@@H](CC1CCCCC1)C(=O)N[C@@H](C)C(=O)N[C@@H](C)C(=O)N[C@@H](CCCCN)C(=O)NCC(=O)N1[C@H](C(=O)N[C@@H](CCCC)C(=O)N2CCC[C@H]2C(=O)N[C@@H](Cc2ccc(Cl)cc2)C(=O)O)C[C@@H]2CCCC[C@@H]21)C(=O)O
# B3: Apelin polypeptide SEQ ID NO: 565 (peptide)
# peptide: Tridecanoyl-[γGlu][AEEA][AEEA][dR]QRP[hArg][NMeL]SHKG[Pip′][Phe(4-I)]P[dBip]-OH
# B4: Apelin polypeptide SEQ ID NO: 351 (peptide)
# peptide: Tridecanoyl-[γGlu][AEEA][AEEA]RQRP[hArg][Cha]AA[Nle]G[Oic][Nle]P[Phe(4-Cl)]-OH
# SMILES: CCCCCCCCCCCCC(=O)N[C@@H](CCC(=O)NCCOCCOCC(=O)NCCOCCOCC(=O)N[C@@H](CCCNC(=N)N)C(=O)N[C@@H](CCC(N)=O)C(=O)N[C@@H](CCCNC(=N)N)C(=O)N1CCC[C@H]1C(=O)N[C@@H](CCCCNC(=N)N)C(=O)N[C@@H](CC1CCCCC1)C(=O)N[C@@H](C)C(=O)N[C@@H](C)C(=O)N[C@@H](CCCC)C(=O)NCC(=O)N1[C@H](C(=O)N[C@@H](CCCC)C(=O)N2CCC[C@H]2C(=O)N[C@@H](Cc2ccc(Cl)cc2)C(=O)O)C[C@@H]2CCCC[C@@H]21)C(=O)O
# B5: Apelin polypeptide SEQ ID NO: 343 (peptide)
# peptide: Tridecanoyl-[γGlu][AEEA][AEEA]RQ[Nle]P[hArg][Cha]SAKG[Oic][Nle]P[Phe(4-Cl)]-OH
# SMILES: CCCCCCCCCCCCC(=O)N[C@@H](CCC(=O)NCCOCCOCC(=O)NCCOCCOCC(=O)N[C@@H](CCCNC(=N)N)C(=O)N[C@@H](CCC(N)=O)C(=O)N[C@@H](CCCC)C(=O)N1CCC[C@H]1C(=O)N[C@@H](CCCCNC(=N)N)C(=O)N[C@@H](CC1CCCCC1)C(=O)N[C@@H](CO)C(=O)N[C@@H](C)C(=O)N[C@@H](CCCCN)C(=O)NCC(=O)N1[C@H](C(=O)N[C@@H](CCCC)C(=O)N2CCC[C@H]2C(=O)N[C@@H](Cc2ccc(Cl)cc2)C(=O)O)C[C@@H]2CCCC[C@@H]21)C(=O)O
# B6: Apelin polypeptide SEQ ID NO: 344 (peptide)
# peptide: Tridecanoyl-[γGlu][AEEA][AEEA]RQRP[Nle][Cha]AHKG[Oic][Nle]P[Phe(4-Cl)]-OH
# SMILES: CCCCCCCCCCCCC(=O)N[C@@H](CCC(=O)NCCOCCOCC(=O)NCCOCCOCC(=O)N[C@@H](CCCNC(=N)N)C(=O)N[C@@H](CCC(N)=O)C(=O)N[C@@H](CCCNC(=N)N)C(=O)N1CCC[C@H]1C(=O)N[C@@H](CCCC)C(=O)N[C@@H](CC1CCCCC1)C(=O)N[C@@H](C)C(=O)N[C@@H](Cc1c[nH]cn1)C(=O)N[C@@H](CCCCN)C(=O)NCC(=O)N1[C@H](C(=O)N[C@@H](CCCC)C(=O)N2CCC[C@H]2C(=O)N[C@@H](Cc2ccc(Cl)cc2)C(=O)O)C[C@@H]2CCCC[C@@H]21)C(=O)O
# B7: Apelin polypeptide SEQ ID NO: 336 (peptide)
# peptide: Tridecanoyl-[γGlu][AEEA][AEEA]RQRP[hArg][Cha]SH[Nle]G[Oic][Nle]P[Phe(4-Cl)]-OH
# SMILES: CCCCCCCCCCCCC(=O)N[C@@H](CCC(=O)NCCOCCOCC(=O)NCCOCCOCC(=O)N[C@@H](CCCNC(=N)N)C(=O)N[C@@H](CCC(N)=O)C(=O)N[C@@H](CCCNC(=N)N)C(=O)N1CCC[C@H]1C(=O)N[C@@H](CCCCNC(=N)N)C(=O)N[C@@H](CC1CCCCC1)C(=O)N[C@@H](CO)C(=O)N[C@@H](Cc1c[nH]cn1)C(=O)N[C@@H](CCCC)C(=O)NCC(=O)N1[C@H](C(=O)N[C@@H](CCCC)C(=O)N2CCC[C@H]2C(=O)N[C@@H](Cc2ccc(Cl)cc2)C(=O)O)C[C@@H]2CCCC[C@@H]21)C(=O)O
# B8: Apelin polypeptide SEQ ID NO: 339 (peptide)
# peptide: Tridecanoyl-[γGlu][AEEA][AEEA]RQ[Nle]P[hArg][Cha]SHKG[Oic][Nle]P[Phe(4-Cl)]-OH
# SMILES: CCCCCCCCCCCCC(=O)N[C@@H](CCC(=O)NCCOCCOCC(=O)NCCOCCOCC(=O)N[C@@H](CCCNC(=N)N)C(=O)N[C@@H](CCC(N)=O)C(=O)N[C@@H](CCCC)C(=O)N1CCC[C@H]1C(=O)N[C@@H](CCCCNC(=N)N)C(=O)N[C@@H](CC1CCCCC1)C(=O)N[C@@H](CO)C(=O)N[C@@H](Cc1c[nH]cn1)C(=O)N[C@@H](CCCCN)C(=O)NCC(=O)N1[C@H](C(=O)N[C@@H](CCCC)C(=O)N2CCC[C@H]2C(=O)N[C@@H](Cc2ccc(Cl)cc2)C(=O)O)C[C@@H]2CCCC[C@@H]21)C(=O)O
# B9: Apelin polypeptide SEQ ID NO: 564 (peptide)
# peptide: Tridecanoyl-[γGlu][AEEA][AEEA]RQ[Nle]P[hArg][Cha]SAKG[Pip′][Nle]P[Phe(4-Cl)]-OH
# B10: Apelin polypeptide SEQ ID NO: 340 (peptide)
# peptide: Tridecanoyl-[γGlu][AEEA][AEEA]RQRP[hArg][Cha]SA[Nle]G[Oic][Nle]P[Phe(4-Cl)]-OH
# SMILES: CCCCCCCCCCCCC(=O)N[C@@H](CCC(=O)NCCOCCOCC(=O)NCCOCCOCC(=O)N[C@@H](CCCNC(=N)N)C(=O)N[C@@H](CCC(N)=O)C(=O)N[C@@H](CCCNC(=N)N)C(=O)N1CCC[C@H]1C(=O)N[C@@H](CCCCNC(=N)N)C(=O)N[C@@H](CC1CCCCC1)C(=O)N[C@@H](CO)C(=O)N[C@@H](C)C(=O)N[C@@H](CCCC)C(=O)NCC(=O)N1[C@H](C(=O)N[C@@H](CCCC)C(=O)N2CCC[C@H]2C(=O)N[C@@H](Cc2ccc(Cl)cc2)C(=O)O)C[C@@H]2CCCC[C@@H]21)C(=O)O
# B11: Apelin polypeptide SEQ ID NO: 348 (peptide)
# peptide: Tridecanoyl-[γGlu][AEEA][AEEA]RQ[Nle]P[hArg][Cha]AAKG[Oic][Nle]P[Phe(4-Cl)]-OH
# SMILES: CCCCCCCCCCCCC(=O)N[C@@H](CCC(=O)NCCOCCOCC(=O)NCCOCCOCC(=O)N[C@@H](CCCNC(=N)N)C(=O)N[C@@H](CCC(N)=O)C(=O)N[C@@H](CCCC)C(=O)N1CCC[C@H]1C(=O)N[C@@H](CCCCNC(=N)N)C(=O)N[C@@H](CC1CCCCC1)C(=O)N[C@@H](C)C(=O)N[C@@H](C)C(=O)N[C@@H](CCCCN)C(=O)NCC(=O)N1[C@H](C(=O)N[C@@H](CCCC)C(=O)N2CCC[C@H]2C(=O)N[C@@H](Cc2ccc(Cl)cc2)C(=O)O)C[C@@H]2CCCC[C@@H]21)C(=O)O
# B12: Apelin polypeptide SEQ ID NO: 350 (peptide)
# peptide: Tridecanoyl-[γGlu][AEEA][AEEA]RQRP[Nle][Cha]SAKG[Oic][Nle]P[Phe(4-Cl)]-OH
# SMILES: CCCCCCCCCCCCC(=O)N[C@@H](CCC(=O)NCCOCCOCC(=O)NCCOCCOCC(=O)N[C@@H](CCCNC(=N)N)C(=O)N[C@@H](CCC(N)=O)C(=O)N[C@@H](CCCNC(=N)N)C(=O)N1CCC[C@H]1C(=O)N[C@@H](CCCC)C(=O)N[C@@H](CC1CCCCC1)C(=O)N[C@@H](CO)C(=O)N[C@@H](C)C(=O)N[C@@H](CCCCN)C(=O)NCC(=O)N1[C@H](C(=O)N[C@@H](CCCC)C(=O)N2CCC[C@H]2C(=O)N[C@@H](Cc2ccc(Cl)cc2)C(=O)O)C[C@@H]2CCCC[C@@H]21)C(=O)O
# Experiments:
# human APJ receptor = target: T1, human APJ receptor (human, UniProt P35414 1-380); experiment: cell-based or functional assay
# T1 sequence (looked up): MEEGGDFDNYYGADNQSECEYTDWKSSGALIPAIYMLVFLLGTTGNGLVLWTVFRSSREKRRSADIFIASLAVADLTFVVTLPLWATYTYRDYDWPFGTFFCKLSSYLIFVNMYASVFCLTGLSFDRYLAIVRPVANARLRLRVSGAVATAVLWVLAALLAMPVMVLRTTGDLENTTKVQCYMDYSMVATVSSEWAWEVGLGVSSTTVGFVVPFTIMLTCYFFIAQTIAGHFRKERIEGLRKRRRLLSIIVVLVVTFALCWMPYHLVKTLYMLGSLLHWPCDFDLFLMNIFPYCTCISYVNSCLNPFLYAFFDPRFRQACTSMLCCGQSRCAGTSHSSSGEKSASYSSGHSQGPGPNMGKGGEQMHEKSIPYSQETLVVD
# rat APJ receptor = target: T2, rat APJ receptor (rat, UniProt Q9JHG3 1-377); experiment: cell-based or functional assay
# T2 sequence (looked up): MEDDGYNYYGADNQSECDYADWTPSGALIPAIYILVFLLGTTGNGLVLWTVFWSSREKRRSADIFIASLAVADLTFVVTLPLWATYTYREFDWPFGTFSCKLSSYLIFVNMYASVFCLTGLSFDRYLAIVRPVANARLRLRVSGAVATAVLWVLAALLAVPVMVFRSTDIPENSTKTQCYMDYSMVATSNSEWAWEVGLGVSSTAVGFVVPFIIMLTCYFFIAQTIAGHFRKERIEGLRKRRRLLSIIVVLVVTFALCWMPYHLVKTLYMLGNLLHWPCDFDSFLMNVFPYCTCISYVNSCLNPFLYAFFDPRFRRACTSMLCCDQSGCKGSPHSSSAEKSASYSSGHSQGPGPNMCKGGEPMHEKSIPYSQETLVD
binder,measurement,setting,value
B1,EC50 Human APJ Receptor (GTPγS assay),human APJ receptor,0.315 nM
same,EC50 Rat APJ Receptor (GTPγS assay),rat APJ receptor,0.964 nM
B2,EC50 Human APJ Receptor (GTPγS assay),human APJ receptor,4.51 nM
same,EC50 Rat APJ Receptor (GTPγS assay),rat APJ receptor,5.79 nM
B3,EC50 Human APJ Receptor (GTPγS assay),human APJ receptor,1.02 nM
same,EC50 Rat APJ Receptor (GTPγS assay),rat APJ receptor,2.82 nM
B4,EC50 Human APJ Receptor (GTPγS assay),human APJ receptor,1.59 nM
same,EC50 Rat APJ Receptor (GTPγS assay),rat APJ receptor,1.8 nM
B5,EC50 Human APJ Receptor (GTPγS assay),human APJ receptor,1.4 nM
same,EC50 Rat APJ Receptor (GTPγS assay),rat APJ receptor,1.24 nM
B6,EC50 Human APJ Receptor (GTPγS assay),human APJ receptor,3.46 nM
same,EC50 Rat APJ Receptor (GTPγS assay),rat APJ receptor,5.58 nM
B7,EC50 Human APJ Receptor (GTPγS assay),human APJ receptor,0.714 nM
same,EC50 Rat APJ Receptor (GTPγS assay),rat APJ receptor,0.986 nM
B8,EC50 Human APJ Receptor (GTPγS assay),human APJ receptor,2.55 nM
same,EC50 Rat APJ Receptor (GTPγS assay),rat APJ receptor,4.53 nM
B9,EC50 Human APJ Receptor (GTPγS assay),human APJ receptor,0.331 nM
same,EC50 Rat APJ Receptor (GTPγS assay),rat APJ receptor,1.49 nM
B10,EC50 Human APJ Receptor (GTPγS assay),human APJ receptor,0.345 nM
same,EC50 Rat APJ Receptor (GTPγS assay),rat APJ receptor,0.676 nM
B11,EC50 Human APJ Receptor (GTPγS assay),human APJ receptor,4.92 nM
same,EC50 Rat APJ Receptor (GTPγS assay),rat APJ receptor,7.46 nM
B12,EC50 Human APJ Receptor (GTPγS assay),human APJ receptor,0.285 nM
same,EC50 Rat APJ Receptor (GTPγS assay),rat APJ receptor,0.624 nM
